This experiment deals with T1, 6His-DnaK (E. coli DnaK protein) (E. coli, UniProt P0A6Y8 1-638).
T1 construct: molecular chaperone DnaK of E. coli, from the ASKA expression clone; The functional rows concern endogenous DnaK in E. coli BL21 cells; source: purified from the ASKA expression clone by chromatography on Ni-NTA agarose
In words: MST; 20 nM fluorescein-labelled peptide incubated with varying concentrations of DnaK; 50 mM Tris pH 7.4, 150 mM NaCl, 10 mM MgCl2, 0.05% Tween-20, 0.05% BSA; 1 h at 20°C; Monolith NT.115; three independent trials. The conditions noted are these: both partners purified.

*: point of attachment. FITC = O=C1OC2(c3ccc(O)cc3Oc3cc(O)ccc32)c2ccc(NC(=S)*)cc21

T1 sequence (P0A6Y8 whole entry): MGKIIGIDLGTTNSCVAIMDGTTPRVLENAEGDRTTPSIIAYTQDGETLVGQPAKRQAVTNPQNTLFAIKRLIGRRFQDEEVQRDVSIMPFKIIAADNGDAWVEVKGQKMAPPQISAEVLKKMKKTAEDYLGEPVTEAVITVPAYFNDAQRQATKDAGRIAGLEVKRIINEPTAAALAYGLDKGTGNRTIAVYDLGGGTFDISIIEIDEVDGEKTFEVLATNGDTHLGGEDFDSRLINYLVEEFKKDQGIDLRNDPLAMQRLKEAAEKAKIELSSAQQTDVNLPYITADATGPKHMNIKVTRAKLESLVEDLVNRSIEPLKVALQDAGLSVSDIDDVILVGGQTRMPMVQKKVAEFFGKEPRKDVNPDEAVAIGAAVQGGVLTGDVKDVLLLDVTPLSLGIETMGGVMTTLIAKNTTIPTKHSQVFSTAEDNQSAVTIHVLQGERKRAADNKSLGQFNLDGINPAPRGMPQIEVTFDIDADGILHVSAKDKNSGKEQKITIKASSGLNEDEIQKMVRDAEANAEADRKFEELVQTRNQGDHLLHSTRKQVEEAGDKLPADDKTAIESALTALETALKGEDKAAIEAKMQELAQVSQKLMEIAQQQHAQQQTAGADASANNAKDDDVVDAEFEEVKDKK

B1: KL peptide, FITC-TEKAKLVIKLLALGKTEQ (KL decapeptide of ARF48 with flanking extensions) (peptide)
peptide: {FITC}-TEKAKLVIKLLALGKTEQ-NH2
notes: ARF48 is encoded by a +1 alternate reading frame of an Arabidopsis thaliana cDNA and is not a natural protein; The core decapeptide comes from an aberrant alternate-frame polypeptide, not from a natural protein; also called synthetic KL decapeptide; source: synthetic peptide (Peptide 2.0, Inc.)
For the molecule B1, the binding result was “binds”.

B2: NR peptide, FITC-TEKANRLLLTGKTEQ (canonical DnaK peptide substrate NRLLLTG with flanking extensions) (peptide)
peptide: {FITC}-TEKANRLLLTGKTEQ-NH2
notes: canonical DnaK peptide substrate NRLLLTG flanked by the N-terminal extension TEKA and the C-terminal extension KTEQ; source: synthetic peptide (Peptide 2.0, Inc.)
Regarding B2, the binding result is recorded as “binds”.

The values above are taken from paper PMC9053816, “A polypeptide model for toxic aberrant proteins induced by aminoglycoside antibiotics” (PLoS ONE, 2022).
